Reference: paper PMC9748339, “Co-crystalization reveals the interaction between AtYchF1 and ppGpp” (Frontiers in Molecular Biosciences, 2022)

T1: MBP-AtYchF1 (Arabidopsis thaliana, UniProt Q9SA73)
T1 construct: gene YchF1; AtYchF1 cDNA in pMAL-C2, N-terminal MBP tag kept, E. coli BL21 (DE3)
T1 sequence (Q9SA73 1-394): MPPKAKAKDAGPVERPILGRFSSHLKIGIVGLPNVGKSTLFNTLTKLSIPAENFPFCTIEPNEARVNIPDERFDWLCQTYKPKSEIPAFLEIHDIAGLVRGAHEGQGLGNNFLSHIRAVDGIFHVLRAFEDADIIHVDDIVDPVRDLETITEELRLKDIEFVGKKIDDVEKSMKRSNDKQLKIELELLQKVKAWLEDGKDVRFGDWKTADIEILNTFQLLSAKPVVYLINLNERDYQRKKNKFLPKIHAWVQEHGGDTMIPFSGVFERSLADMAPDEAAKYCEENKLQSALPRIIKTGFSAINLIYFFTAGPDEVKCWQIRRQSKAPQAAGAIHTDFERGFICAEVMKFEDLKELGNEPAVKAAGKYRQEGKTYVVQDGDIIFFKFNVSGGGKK

B1: MBP-AtYchF1 (Arabidopsis thaliana) (protein)
chain: T1 sequence (Q9SA73 1-394)
notes: AtYchF1 cDNA in pMAL-C2, N-terminal MBP tag kept, E. coli BL21 (DE3)

Columns and labels:
[1] = target: T1, MBP-AtYchF1; assay: competition with Mant-GTP or Mant-ATP, fluorescence […]-500 nm; format: binding; conditions: 31 μM Mant-GTP or Mant-ATP; about 100 μM MBP-AtYchF1; competitive
[2] = substrate: Nc1ncnc2c1ncn2[C@@H]1O[C@H](COP(=O)(O)OP(=O)(O)OP(=O)(O)O)[C@@H](O)[C@H]1O; assay: purified protein; format: biochemical, Arabidopsis thaliana; conditions: 300 μM MBP-AtYchF1; Pi release
[3] = substrate: Nc1nc2c(ncn2[C@@H]2O[C@H](COP(=O)(O)OP(=O)(O)O)[C@@H](OP(=O)(O)OP(=O)(O)O)[C@H]2O)c(=O)[nH]1; assay: purified protein; format: biochemical, Arabidopsis thaliana; conditions: 300 μM MBP-AtYchF1; room temperature; PPi release
[4] = substrate: Nc1nc2c(ncn2[C@@H]2O[C@H](COP(=O)(O)OP(=O)(O)OP(=O)(O)O)[C@@H](O)[C@H]2O)c(=O)[nH]1; assay: purified protein; format: biochemical, Arabidopsis thaliana; conditions: 300 μM MBP-AtYchF1; Pi release

Molecule	competition with Mant-GTP or Mant-ATP, fluorescence 400-500 nm [1]	Km [2] [µM]	Vmax [2] [µmol/min]	Km [3] [µM]	Vmax [3] [µmol/min]	Km [4] [µM]	Vmax [4] [µmol/min]
Nc1nc2c(ncn2[C@@H]2O[C@H](COP(=O)(O)OP(=O)(O)O)[C@@H](OP(=O)(O)OP(=O)(O)O)[C@H]2O)c(=O)[nH]1 [ppGpp]	ppGpp competed well against Mant-GTP and Mant-ATP for the binding of MBP-AtYchF1						
B1		1278 ± 183.8	0.0939	2235 ± 294.3	0.0349	1203 ± 125.5	0.0924
